This note sets out measurements from paper PMC5647379.

The target of assay [1] is dansylated calmodulin (D-CaM, 5-(dimethylamino)naphtalene-1-sulfonyl-calmodulin) (rat) (UniProt P0DP29). In words: other fluorescence titration; D-CaM 12.5 nM in the cuvette, increasing concentrations of GST-fusion protein; no Ca2+ (EGTA 10 mM); Tris-HCl 25 mM pH 7.4, KCl 120 mM, NaCl 5 mM, MgCl2 2 mM; 25 °C; apparent affinity (EC50 of a Hill fit to the fluorescence enhancement).

The target is the same in assay [2]. In words: dansyl-CaM fluorescence time course; D-CaM 12.5 nM in a stirred cuvette, emission at 500 nm against time; wt protein (400 nM) added, or one mutant (400 nM) and two minutes later the other mutant (400 nM); also 50 and 100 nM; Fluorescence buffer with or without Ca2+; 25 °C and 37 °C.
Assay [3] deals with Fluorescent dansylated CaM (D-CaM, 5-(dimethylamino)naphtalene-1-sulfonyl-calmodulin) (rat) (UniProt P0DP29). In words: other fluorescence titration; increasing GST-fusion protein added to D-CaM (12.5 nM) in the cuvette; dansyl fluorescence enhancement, Hill fit, apparent affinity (EC50); 25 °C; Fluorescence buffer with 9.63 mM Ca2+ added (3.9 µM free Ca2+).
Assay [4] has the same target. In words: other fluorescence titration; increasing GST-fusion protein added to D-CaM (12.5 nM) in the cuvette; dansyl fluorescence enhancement, Hill fit, apparent affinity (EC50); 25 °C; Tris-HCl 25 mM pH 7.4, KCl 120 mM, NaCl 5 mM, MgCl2 2 mM, EGTA 10 mM; without Ca2+.
In assay [5] the target is dansylated calmodulin (D-CaM, 5-(dimethylamino)naphtalene-1-sulfonyl-calmodulin) (rat) (UniProt P0DP29). The assay is described as follows: other fluorescence titration; as a2 but with an excess of free Ca2+ (3.9 µM; 9.63 mM Ca2+ added to the Fluorescence buffer); apparent affinity (EC50).
The target is the same in assay [6]. The assay is described as follows: other fluorescence titration; D-CaM 12.5 nM in the cuvette, increasing concentrations of GST-fusion protein; no Ca2+ (EGTA 10 mM); Tris-HCl 25 mM pH 7.4, KCl 120 mM, NaCl 5 mM, MgCl2 2 mM; 25 °C; apparent affinity (EC50 of a Hill fit to the fluorescence enhancement). The source holds these as a separate data set.
In assay [7] the target is mTurquoise2-Kv7.2-ABCD (residues 310-653) (human). The assay is described as follows: FRET or BRET; equimolar mixtures (500 nM or 2.5 µM each) of purified CFP-ABCD/CaM (donor) and YFP-ABCD/CaM (acceptor) complexes; FRET index followed over time; KCl 120 mM, Hepes 50 mM, NaCl 5 mM, EGTA 5 mM, with or without Ca2+. On the technique in general: Bioluminescence resonance energy transfer reports proximity on the nanometre scale.

With “ABCD# (equimolar mixture of ABCD-A343D and ABCD-S511D)”, the EC50 in assay [1] was determined as 45.5 nM. In addition, in assay [2], the half-time in the trans-binding assay (400 nM) was 6.5 min; the time to reach the half-maximal D-CaM fluorescence signal (400 nM, 25 °C) turned out to be 12 min; the time to reach the half-maximal D-CaM fluorescence signal (400 nM, 37 °C) was 9.2 min.
For the substance “ABCD# (equimolar mixture of GST-ABCD-S511D and GST-ABCD-A343D of Kv7.2)”, the EC50 in assay [3] is 78.5 nM.
On to “ABCD#-L609R (equal mixture of helix A and helix B mutants of ABCD carrying L609R)”, for which, in assay [1], the EC50 was found to be 120 nM.
As to “ABCD#-L609R (equimolar mixture of GST-ABCD-S511D-L609R and GST-ABCD-A343D-L609R of Kv7.2)”, the EC50 in assay [4] was 119 nM; in assay [3] it was 173 nM.
Regarding “GST-Kv7.2 ABCD (helices ABCD fused to GST) (domain or fragment)”, the concentration for a half-maximal effect (EC50) in assay [1] came out at 9.1 nM; in assay [5], 15.1 nM; in assay [6] it was 9.2 nM.
Regarding “mCitrine-Kv7.2-ABCD (residues 310-653) (domain or fragment)”, in assay [7], the time to reach half maximal FRET (2.5 µM donor and acceptor) came to 6.9 min; the time to reach the half maximal FRET index (500 nM mixture) was found to be 12.2 min.

For orientation: EC50 means the concentration at which the effect is half-maximal.
